Measurements taken from article PMC10341547.

Key:
[1] = target: large-conductance calcium-activated potassium (BKCa) channel alpha subunit (rat (endogenous in mesenteric arteries)) (UniProt Q62976)
[2] = target: large-conductance calcium-activated potassium (BKCa) channel alpha subunit (rat (endogenous in mesenteric arteries)) (UniProt Q62976); remark: listed apart in the source

Sequence of large-conductance calcium-activated potassium (BKCa) channel alpha subunit (rat (endogenous in mesenteric arteries)) (Q62976 whole entry): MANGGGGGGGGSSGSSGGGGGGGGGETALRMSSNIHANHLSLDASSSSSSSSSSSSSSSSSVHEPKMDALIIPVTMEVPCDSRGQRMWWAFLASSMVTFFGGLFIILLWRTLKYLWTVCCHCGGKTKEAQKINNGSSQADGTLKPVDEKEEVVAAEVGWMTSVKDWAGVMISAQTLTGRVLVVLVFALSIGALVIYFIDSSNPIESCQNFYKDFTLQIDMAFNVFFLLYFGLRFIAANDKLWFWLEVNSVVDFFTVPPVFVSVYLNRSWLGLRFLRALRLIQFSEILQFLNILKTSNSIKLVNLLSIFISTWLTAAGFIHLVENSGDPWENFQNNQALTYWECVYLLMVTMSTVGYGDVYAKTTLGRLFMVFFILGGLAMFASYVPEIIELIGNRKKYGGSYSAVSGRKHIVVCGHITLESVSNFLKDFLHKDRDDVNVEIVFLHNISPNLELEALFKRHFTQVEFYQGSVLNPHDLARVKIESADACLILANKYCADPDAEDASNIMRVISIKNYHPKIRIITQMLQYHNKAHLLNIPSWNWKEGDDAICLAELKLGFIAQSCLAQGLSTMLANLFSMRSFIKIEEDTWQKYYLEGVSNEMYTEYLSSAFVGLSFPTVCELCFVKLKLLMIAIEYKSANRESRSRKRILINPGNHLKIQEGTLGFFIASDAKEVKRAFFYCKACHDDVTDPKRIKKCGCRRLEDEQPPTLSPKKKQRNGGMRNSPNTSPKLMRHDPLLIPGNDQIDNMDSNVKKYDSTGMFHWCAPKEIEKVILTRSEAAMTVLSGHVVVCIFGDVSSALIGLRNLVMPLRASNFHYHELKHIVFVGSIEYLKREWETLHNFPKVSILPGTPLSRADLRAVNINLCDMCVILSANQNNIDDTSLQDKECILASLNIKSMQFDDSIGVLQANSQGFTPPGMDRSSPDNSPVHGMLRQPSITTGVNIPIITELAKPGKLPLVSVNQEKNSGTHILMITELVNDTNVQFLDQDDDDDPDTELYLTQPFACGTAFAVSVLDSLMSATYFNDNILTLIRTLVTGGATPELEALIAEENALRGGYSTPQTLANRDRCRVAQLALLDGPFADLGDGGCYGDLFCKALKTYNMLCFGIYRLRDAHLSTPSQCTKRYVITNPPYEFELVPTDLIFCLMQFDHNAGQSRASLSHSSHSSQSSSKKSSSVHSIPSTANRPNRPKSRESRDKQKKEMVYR
Sequence of inositol 1,4,5-trisphosphate receptor 1, P29994 1-2750 (natural protein) (P29994 whole entry): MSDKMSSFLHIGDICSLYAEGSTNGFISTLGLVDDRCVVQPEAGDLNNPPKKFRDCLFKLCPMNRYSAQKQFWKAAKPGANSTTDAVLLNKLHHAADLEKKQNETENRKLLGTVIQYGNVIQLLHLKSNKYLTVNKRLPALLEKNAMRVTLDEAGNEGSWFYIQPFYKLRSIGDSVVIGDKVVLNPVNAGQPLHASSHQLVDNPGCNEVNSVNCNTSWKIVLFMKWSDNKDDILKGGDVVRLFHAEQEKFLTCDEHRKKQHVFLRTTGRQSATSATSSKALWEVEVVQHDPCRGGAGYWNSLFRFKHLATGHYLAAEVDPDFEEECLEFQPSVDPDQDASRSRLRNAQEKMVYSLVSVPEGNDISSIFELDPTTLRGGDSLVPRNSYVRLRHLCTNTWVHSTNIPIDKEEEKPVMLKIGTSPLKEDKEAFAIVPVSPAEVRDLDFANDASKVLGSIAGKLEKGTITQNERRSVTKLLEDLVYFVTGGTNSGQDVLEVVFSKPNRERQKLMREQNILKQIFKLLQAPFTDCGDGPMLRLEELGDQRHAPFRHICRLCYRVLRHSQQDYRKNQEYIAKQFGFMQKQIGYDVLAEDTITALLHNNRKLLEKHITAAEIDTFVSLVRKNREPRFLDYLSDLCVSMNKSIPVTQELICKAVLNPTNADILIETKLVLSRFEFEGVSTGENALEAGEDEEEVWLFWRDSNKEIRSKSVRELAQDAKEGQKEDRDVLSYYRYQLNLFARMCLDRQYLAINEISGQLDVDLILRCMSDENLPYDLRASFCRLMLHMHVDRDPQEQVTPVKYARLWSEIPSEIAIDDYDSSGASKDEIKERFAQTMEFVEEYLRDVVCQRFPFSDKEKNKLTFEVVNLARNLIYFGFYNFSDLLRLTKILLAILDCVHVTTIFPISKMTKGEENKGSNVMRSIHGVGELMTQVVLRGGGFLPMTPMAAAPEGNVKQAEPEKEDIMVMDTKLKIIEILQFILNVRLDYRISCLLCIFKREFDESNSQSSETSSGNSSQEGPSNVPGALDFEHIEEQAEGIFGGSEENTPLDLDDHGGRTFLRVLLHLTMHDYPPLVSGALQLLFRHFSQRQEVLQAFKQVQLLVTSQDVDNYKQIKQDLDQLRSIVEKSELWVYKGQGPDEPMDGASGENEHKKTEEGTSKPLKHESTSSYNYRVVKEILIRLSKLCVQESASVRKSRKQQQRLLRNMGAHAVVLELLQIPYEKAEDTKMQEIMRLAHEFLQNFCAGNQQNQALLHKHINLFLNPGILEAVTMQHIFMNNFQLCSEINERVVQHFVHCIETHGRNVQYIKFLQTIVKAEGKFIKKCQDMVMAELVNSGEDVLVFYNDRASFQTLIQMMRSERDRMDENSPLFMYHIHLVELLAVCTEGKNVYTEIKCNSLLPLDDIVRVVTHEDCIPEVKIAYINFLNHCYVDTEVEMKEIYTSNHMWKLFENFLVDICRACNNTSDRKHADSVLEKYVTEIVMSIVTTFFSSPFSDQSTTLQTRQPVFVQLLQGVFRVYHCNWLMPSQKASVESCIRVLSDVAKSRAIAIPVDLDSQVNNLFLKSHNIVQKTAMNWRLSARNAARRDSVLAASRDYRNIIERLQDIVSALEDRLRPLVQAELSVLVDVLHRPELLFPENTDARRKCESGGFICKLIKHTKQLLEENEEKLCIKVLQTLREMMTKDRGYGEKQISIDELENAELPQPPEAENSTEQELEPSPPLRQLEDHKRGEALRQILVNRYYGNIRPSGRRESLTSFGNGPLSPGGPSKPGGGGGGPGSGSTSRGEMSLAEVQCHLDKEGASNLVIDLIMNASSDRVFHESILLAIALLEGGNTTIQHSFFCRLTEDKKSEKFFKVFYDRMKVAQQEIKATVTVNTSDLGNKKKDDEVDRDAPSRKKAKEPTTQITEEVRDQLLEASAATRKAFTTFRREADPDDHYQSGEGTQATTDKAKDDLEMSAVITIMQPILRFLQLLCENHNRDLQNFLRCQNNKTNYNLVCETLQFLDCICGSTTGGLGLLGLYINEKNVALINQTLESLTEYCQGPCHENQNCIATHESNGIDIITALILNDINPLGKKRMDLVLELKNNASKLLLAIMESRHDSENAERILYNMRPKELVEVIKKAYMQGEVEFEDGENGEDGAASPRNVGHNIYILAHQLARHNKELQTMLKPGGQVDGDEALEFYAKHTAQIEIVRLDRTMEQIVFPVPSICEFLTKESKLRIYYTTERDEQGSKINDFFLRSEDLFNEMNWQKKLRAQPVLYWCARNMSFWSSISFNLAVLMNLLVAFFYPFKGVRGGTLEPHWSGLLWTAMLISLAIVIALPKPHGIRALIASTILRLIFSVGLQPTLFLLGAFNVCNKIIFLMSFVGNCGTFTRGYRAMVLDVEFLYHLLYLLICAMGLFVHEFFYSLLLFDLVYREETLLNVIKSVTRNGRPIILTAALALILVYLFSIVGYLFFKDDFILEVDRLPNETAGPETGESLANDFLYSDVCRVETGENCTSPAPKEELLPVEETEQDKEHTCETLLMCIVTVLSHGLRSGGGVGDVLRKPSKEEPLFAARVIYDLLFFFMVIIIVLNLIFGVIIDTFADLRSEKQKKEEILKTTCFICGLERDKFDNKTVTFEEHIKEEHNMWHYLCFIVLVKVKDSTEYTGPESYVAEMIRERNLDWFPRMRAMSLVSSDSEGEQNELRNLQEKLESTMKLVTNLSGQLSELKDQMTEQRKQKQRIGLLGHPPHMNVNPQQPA

whole-cell BKCa current density at +60 mV in mesenteric VSMCs of SHR before and after the IP3R agonist Adenophostin A [1]: 65.6 pA/pF
whole-cell BKCa current density at +60 mV in mesenteric VSMCs of WKY rats before and after the IP3R agonist Adenophostin A [2]: 142 pA/pF
Substance: inositol 1,4,5-trisphosphate receptor 1, P29994 1-2750 (natural protein)
